T1: PR70 (25–575) (human, UniProt Q9Y5P8 25-575)
T1 construct: PR70 (B''β), regulatory B'' subunit of PP2A, human, product of PPP2R3B; also called B''/PR70; source: E. coli BL21(DE3), purified (IMAC, TEV cleavage, gel filtration); not shown: His tag, N-terminal, cleaved
T1 sequence (looked up): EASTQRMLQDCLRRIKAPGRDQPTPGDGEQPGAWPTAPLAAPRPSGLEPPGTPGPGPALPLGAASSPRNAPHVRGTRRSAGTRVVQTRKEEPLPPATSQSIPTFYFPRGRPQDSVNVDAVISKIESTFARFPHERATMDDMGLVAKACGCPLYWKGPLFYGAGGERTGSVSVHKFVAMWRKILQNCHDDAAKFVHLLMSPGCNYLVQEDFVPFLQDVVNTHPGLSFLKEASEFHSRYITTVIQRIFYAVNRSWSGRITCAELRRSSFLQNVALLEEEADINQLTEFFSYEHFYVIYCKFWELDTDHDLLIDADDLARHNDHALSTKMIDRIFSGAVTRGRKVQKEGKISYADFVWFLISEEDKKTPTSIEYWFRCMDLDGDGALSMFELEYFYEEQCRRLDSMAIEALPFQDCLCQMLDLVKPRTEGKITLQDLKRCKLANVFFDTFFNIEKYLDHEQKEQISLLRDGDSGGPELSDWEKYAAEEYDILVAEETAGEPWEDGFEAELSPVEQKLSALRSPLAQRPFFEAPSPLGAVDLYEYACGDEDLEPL

T2: PR70 (105–575) (human, UniProt Q9Y5P8 105-575)
T2 construct: PR70 (B''β), regulatory B'' subunit of PP2A, human, product of PPP2R3B; source: E. coli BL21(DE3), purified (IMAC, TEV cleavage, gel filtration); not shown: His tag, N-terminal, cleaved
T2 sequence (looked up): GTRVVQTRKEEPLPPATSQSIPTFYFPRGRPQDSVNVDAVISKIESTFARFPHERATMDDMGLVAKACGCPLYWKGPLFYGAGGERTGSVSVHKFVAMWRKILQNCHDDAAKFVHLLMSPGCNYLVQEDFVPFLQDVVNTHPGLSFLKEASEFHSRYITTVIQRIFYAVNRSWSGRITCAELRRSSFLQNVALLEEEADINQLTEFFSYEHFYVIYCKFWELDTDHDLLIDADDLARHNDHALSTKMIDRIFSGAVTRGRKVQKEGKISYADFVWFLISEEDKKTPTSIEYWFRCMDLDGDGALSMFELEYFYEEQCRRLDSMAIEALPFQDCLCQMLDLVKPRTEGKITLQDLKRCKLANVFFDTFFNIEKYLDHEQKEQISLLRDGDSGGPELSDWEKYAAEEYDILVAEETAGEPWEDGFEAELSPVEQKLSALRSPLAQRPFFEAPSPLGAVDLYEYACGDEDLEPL

T3: PR70 (130–504) (human, UniProt Q9Y5P8 130-504)
T3 construct: PR70 (B''β), regulatory B'' subunit of PP2A, human, product of PPP2R3B; residues 130–504; source: E. coli BL21(DE3), purified (IMAC, TEV cleavage, gel filtration); not shown: His tag, N-terminal, cleaved
T3 sequence (looked up): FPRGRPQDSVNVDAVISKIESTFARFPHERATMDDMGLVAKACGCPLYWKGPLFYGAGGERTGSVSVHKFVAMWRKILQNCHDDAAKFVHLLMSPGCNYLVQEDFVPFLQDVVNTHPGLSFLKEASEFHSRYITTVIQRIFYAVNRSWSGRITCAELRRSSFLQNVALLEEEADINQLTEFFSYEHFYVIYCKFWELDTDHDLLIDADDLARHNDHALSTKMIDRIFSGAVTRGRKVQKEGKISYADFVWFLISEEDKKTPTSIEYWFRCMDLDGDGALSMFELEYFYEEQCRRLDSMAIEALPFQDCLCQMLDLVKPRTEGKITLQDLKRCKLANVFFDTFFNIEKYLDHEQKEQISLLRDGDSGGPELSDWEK

T4: PR70 core fragment (residues 130–483) (human, UniProt Q9Y5P8 130-483)
T4 construct: PR70 (B''β), regulatory B'' subunit of PP2A, human, product of PPP2R3B; The crystal (PDB 4MEW) was of the selenomethionine-labelled protein alone; the model holds residues 134–481; also called PR70 core domain; source: E. coli BL21(DE3), purified (IMAC, TEV cleavage, gel filtration); not shown: His tag, N-terminal, cleaved
T4 sequence (looked up): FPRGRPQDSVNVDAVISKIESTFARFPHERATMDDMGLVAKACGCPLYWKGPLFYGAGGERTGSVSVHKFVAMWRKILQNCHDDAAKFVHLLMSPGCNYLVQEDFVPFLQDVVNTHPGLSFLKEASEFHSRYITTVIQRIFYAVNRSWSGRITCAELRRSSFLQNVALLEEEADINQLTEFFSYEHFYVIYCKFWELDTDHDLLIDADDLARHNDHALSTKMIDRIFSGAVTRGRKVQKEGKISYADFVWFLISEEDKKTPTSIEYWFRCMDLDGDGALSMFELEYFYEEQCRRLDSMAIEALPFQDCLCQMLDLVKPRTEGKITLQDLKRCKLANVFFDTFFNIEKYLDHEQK


Tests used:
Details in all cases: both partners purified
PR70 (25–575) = biological target: T1, PR70 (25–575); assay: ITC; B''-constructs at 20–40 µM in the cell titrated with 200–300 µM Aα or Aβ constructs; 15°C; 20 mM Tris pH 7.5, 200 mM NaCl, 2 mM CaCl2; 1:1 binding model
PR70 (105–575) = biological target: T2, PR70 (105–575); assay: as above
PR70 (130–504) = biological target: T3, PR70 (130–504); assay: as above
[1] = biological target: T4, PR70 core fragment (residues 130–483); assay: as above
A α (HEAT1–15) = biological target: T5, A α (HEAT1–15) (UniProt P30153 1-589); assay: SAXS; complex purified on Superdex 200 in 20 mM Tris pH 7.5, 20 mM NaCl, 2 mM CaCl2, 0.5 mM TCEP, 1% glycerol at 15°C just prior to SAXS; 1.5 mg/ml
T5 construct: PP2A scaffolding subunit A, α isoform, product of PPP2R1A; HEAT repeats 1–15; calculated molecular weight 65.3 kD; also called full length A-subunit; scaffolding A subunit; source: E. coli BL21(DE3), purified (IMAC, TEV cleavage, gel filtration); not shown: His tag, N-terminal, cleaved

| Kd (PR70 (25–575)) [nM] | dH (PR70 (25–575)) [kcal/mol] | stoichiometry N (PR70 (25–575)) | Kd (PR70 (105–575)) [nM] | dH (PR70 (105–575)) [kcal/mol] | stoichiometry N (PR70 (105–575)) | Kd (PR70 (130–504)) [nM] | Kd [1] [nM] | binding result (A α (HEAT1–15)) | Binder |
| --- | --- | --- | --- | --- | --- | --- | --- | --- | --- |
| 223 ± 21 | -19.1 ± 0.4 | 0.93 ± 0.02 | 158 ± 22 | -20.3 ± 0.2 | 0.99 ± 0.01 | > 100000 | > 100000 | – | A α (HEAT1–8) (domain or fragment, UniProt P30153 1-321, looked up, PP2A scaffolding subunit A, α isoform, product of PPP2R1A; HEAT repeats 1–8 (C-terminal repeats deleted); also called construct spanning HEAT repeats 1–8; source: E. coli BL21(DE3), purified (IMAC, TEV cleavage, gel filtration); not shown: His tag, N-terminal, cleaved) MAAADGDDSLYPIAVLIDELRNEDVQLRLNSIKKLSTIALALGVERTRSELLPFLTDTIYDEDEVLLALAEQLGTFTTLVGGPEYVHCLLPPLESLATVEETVVRDKAVESLRAISHEHSPSDLEAHFVPLVKRLAGGDWFTSRTSACGLFSVCYPRVSSAVKAELRQYFRNLCSDDTPMVRRAAASKLGEFAKVLELDNVKSEIIPMFSNLASDEQDSVRLLAVEACVNIAQLLPQEDLEALVMPTLRQAAEDKSWRVRYMVADKFTELQKAVGPEITKTDLVPAFQNLMKDCEAEVRAAASHKVKEFCENLSADCRENV |
| – | – | – | – | – | – | – | – | binds | PR70 (130–575) (domain or fragment, human, UniProt Q9Y5P8 130-575, looked up, PR70 (B''β), regulatory B'' subunit of PP2A, human, product of PPP2R3B; Used only for SAXS of the complex with the A-subunit; source: E. coli BL21(DE3), purified (IMAC, TEV cleavage, gel filtration); not shown: His tag, N-terminal, cleaved) FPRGRPQDSVNVDAVISKIESTFARFPHERATMDDMGLVAKACGCPLYWKGPLFYGAGGERTGSVSVHKFVAMWRKILQNCHDDAAKFVHLLMSPGCNYLVQEDFVPFLQDVVNTHPGLSFLKEASEFHSRYITTVIQRIFYAVNRSWSGRITCAELRRSSFLQNVALLEEEADINQLTEFFSYEHFYVIYCKFWELDTDHDLLIDADDLARHNDHALSTKMIDRIFSGAVTRGRKVQKEGKISYADFVWFLISEEDKKTPTSIEYWFRCMDLDGDGALSMFELEYFYEEQCRRLDSMAIEALPFQDCLCQMLDLVKPRTEGKITLQDLKRCKLANVFFDTFFNIEKYLDHEQKEQISLLRDGDSGGPELSDWEKYAAEEYDILVAEETAGEPWEDGFEAELSPVEQKLSALRSPLAQRPFFEAPSPLGAVDLYEYACGDEDLEPL |
